Experimental data published in patent publication US20230013244A1 (BioIncept, LLC, priority 2014, published 2023).

Key:
[1] = biological target: Actinin alpha 1 isoform 3 (human) (UniProt P12814); experiment: PIF affinity column + LC-MS/MS, CD14+ cell lysate
[2] = biological target: Bridging integrator 2 (human) (UniProt Q9UBW5); experiment: PIF affinity column + LC-MS/MS, CD14+ cell lysate
Coronin-1A (human) = Coronin-1A (human) (UniProt P31146); experiment: PIF affinity column + LC-MS/MS, CD14+ cell lysate
Thymosin alpha-1 (human) [3] = biological target: Thymosin alpha-1 (human) (UniProt P06454); experiment: PIF affinity column + LC-MS/MS, CD4+ cell lysate
Chain of Thymosin alpha-1 (human) (P06454 other isoform, or with tags, fused parts or gaps limits assumed): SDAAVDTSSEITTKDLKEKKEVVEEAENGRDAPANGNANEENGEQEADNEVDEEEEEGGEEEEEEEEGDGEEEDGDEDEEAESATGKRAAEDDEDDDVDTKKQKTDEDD

[4] = biological target: Tropomyosin alpha-4 chain (human) (UniProt P67936); experiment: PIF affinity column + LC-MS/MS, CD4+ cell lysate
Chain of Tropomyosin alpha-4 chain (human) (P67936 2-248 limits assumed): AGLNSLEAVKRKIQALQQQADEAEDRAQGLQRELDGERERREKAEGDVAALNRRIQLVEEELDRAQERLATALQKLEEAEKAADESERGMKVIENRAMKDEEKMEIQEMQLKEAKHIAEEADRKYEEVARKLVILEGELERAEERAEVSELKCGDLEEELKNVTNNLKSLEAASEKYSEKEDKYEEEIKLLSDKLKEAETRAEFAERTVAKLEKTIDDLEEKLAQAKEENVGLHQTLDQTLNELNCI

[5] = biological target: Glucosidase 2 subunit beta (human) (UniProt P14314); experiment: PIF affinity column + LC-MS/MS, CD4+ cell lysate
Cofilin-1 (human) [6] = biological target: Cofilin-1 (human) (UniProt P23528); experiment: PIF affinity column + LC-MS/MS, CD4+ cell lysate
[7] = biological target: Serine/arginine-rich-splicing factor 2 (human) (UniProt Q01130); experiment: PIF affinity column + LC-MS/MS, CD4+ cell lysate
[8] = biological target: Isoform 2 of Protein SET (human) (UniProt Q01105); experiment: PIF affinity column + LC-MS/MS, CD4+ cell lysate
Chain of Isoform 2 of Protein SET (human) (Q01105 other isoform, or with tags, fused parts or gaps limits assumed): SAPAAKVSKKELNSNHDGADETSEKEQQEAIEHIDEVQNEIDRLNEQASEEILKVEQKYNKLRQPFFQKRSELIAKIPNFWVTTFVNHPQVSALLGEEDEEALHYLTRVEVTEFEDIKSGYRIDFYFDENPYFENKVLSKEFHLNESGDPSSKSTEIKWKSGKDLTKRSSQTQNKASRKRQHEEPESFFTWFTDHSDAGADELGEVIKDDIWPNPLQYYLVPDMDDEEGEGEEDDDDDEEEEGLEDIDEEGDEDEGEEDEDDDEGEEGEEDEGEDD

Calreticulin (human) = Calreticulin (human) (UniProt P27797); experiment: PIF affinity column + LC-MS/MS, CD4+ cell lysate
Chain of Calreticulin (human) (P27797 18-417 limits assumed): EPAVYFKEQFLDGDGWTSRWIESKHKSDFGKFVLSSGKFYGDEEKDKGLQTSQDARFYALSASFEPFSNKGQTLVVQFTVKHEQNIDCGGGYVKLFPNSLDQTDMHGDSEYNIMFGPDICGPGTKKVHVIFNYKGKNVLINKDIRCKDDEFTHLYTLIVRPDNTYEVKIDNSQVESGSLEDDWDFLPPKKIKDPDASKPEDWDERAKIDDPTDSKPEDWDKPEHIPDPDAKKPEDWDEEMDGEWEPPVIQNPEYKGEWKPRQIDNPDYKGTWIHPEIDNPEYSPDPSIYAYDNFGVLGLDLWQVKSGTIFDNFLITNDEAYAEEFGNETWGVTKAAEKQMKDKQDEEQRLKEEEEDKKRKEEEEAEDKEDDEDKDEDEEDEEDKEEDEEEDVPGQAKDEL

[9] = biological target: Isoform 2 of Heat shock protein HSP 90-alpha (human) (UniProt P07900); experiment: PIF affinity column + LC-MS/MS, CD4+ cell lysate
[10] = biological target: Acidic leucine-rich nuclear phosphoprotein 32 family member A (human) (UniProt P39687); experiment: PIF affinity column + LC-MS/MS, CD4+ cell lysate
Serum albumin (human) [11] = biological target: Serum albumin (human) (UniProt P02768); experiment: PIF affinity column + LC-MS/MS, CD4+ cell lysate
[12] = biological target: Cartilage oligomeric matrix protein (human) (UniProt P49747); experiment: PIF affinity column + LC-MS/MS, CD4+ cell lysate
Chain of Cartilage oligomeric matrix protein (human) (P49747 21-757 limits assumed): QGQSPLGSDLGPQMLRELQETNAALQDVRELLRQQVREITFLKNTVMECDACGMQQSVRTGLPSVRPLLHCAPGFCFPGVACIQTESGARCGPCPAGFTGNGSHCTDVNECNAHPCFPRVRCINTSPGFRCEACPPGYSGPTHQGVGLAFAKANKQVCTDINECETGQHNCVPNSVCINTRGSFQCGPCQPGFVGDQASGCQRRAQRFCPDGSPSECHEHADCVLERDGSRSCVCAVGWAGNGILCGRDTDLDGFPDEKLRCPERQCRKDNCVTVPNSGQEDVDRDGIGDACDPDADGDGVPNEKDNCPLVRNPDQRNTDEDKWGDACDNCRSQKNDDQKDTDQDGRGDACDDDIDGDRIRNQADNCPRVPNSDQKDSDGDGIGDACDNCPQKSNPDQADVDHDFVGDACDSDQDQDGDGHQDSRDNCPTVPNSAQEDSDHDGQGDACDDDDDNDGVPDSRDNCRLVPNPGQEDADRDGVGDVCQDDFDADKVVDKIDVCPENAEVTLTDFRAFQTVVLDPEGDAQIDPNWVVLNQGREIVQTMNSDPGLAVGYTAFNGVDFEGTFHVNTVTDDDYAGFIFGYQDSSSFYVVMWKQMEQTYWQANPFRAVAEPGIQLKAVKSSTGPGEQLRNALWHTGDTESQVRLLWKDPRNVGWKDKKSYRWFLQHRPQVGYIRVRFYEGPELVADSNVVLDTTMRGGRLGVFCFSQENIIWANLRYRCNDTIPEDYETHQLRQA

[13] = biological target: Actin, cytoplasmic 1 (human) (UniProt P60709); experiment: PIF affinity column + LC-MS/MS, CD4+ cell lysate
Thymosin alpha-1 (human) [14] = biological target: Thymosin alpha-1 (human) (UniProt P06454); experiment: PIF affinity column + LC-MS/MS, CD8+ cell lysate
Nucleolin (human) = Nucleolin (human) (UniProt P19338); experiment: PIF affinity column + LC-MS/MS, CD8+ cell lysate
Chain of Nucleolin (human) (P19338 2-710 limits assumed): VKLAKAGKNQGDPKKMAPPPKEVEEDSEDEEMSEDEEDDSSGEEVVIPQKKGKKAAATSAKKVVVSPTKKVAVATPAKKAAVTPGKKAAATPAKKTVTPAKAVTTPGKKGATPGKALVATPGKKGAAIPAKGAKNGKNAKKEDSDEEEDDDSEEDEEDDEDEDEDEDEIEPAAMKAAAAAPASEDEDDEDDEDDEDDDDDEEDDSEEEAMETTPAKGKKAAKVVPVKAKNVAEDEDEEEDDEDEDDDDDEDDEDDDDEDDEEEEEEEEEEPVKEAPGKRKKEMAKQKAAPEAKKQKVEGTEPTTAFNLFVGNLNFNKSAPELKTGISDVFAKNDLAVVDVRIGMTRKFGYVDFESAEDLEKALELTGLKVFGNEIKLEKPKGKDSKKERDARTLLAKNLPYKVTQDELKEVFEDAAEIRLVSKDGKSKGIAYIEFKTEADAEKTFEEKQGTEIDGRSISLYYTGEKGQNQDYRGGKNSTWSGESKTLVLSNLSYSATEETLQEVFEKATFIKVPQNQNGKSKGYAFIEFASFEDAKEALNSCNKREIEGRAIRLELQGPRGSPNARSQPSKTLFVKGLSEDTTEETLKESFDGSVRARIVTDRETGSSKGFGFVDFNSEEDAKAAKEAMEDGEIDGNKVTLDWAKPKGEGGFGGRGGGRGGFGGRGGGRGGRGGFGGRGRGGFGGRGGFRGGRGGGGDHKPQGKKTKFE

Talin-1 (human) = Talin-1 (human) (UniProt Q9Y490); experiment: PIF affinity column + LC-MS/MS, CD8+ cell lysate
Chain of Talin-1 (human) (Q9Y490 whole entry): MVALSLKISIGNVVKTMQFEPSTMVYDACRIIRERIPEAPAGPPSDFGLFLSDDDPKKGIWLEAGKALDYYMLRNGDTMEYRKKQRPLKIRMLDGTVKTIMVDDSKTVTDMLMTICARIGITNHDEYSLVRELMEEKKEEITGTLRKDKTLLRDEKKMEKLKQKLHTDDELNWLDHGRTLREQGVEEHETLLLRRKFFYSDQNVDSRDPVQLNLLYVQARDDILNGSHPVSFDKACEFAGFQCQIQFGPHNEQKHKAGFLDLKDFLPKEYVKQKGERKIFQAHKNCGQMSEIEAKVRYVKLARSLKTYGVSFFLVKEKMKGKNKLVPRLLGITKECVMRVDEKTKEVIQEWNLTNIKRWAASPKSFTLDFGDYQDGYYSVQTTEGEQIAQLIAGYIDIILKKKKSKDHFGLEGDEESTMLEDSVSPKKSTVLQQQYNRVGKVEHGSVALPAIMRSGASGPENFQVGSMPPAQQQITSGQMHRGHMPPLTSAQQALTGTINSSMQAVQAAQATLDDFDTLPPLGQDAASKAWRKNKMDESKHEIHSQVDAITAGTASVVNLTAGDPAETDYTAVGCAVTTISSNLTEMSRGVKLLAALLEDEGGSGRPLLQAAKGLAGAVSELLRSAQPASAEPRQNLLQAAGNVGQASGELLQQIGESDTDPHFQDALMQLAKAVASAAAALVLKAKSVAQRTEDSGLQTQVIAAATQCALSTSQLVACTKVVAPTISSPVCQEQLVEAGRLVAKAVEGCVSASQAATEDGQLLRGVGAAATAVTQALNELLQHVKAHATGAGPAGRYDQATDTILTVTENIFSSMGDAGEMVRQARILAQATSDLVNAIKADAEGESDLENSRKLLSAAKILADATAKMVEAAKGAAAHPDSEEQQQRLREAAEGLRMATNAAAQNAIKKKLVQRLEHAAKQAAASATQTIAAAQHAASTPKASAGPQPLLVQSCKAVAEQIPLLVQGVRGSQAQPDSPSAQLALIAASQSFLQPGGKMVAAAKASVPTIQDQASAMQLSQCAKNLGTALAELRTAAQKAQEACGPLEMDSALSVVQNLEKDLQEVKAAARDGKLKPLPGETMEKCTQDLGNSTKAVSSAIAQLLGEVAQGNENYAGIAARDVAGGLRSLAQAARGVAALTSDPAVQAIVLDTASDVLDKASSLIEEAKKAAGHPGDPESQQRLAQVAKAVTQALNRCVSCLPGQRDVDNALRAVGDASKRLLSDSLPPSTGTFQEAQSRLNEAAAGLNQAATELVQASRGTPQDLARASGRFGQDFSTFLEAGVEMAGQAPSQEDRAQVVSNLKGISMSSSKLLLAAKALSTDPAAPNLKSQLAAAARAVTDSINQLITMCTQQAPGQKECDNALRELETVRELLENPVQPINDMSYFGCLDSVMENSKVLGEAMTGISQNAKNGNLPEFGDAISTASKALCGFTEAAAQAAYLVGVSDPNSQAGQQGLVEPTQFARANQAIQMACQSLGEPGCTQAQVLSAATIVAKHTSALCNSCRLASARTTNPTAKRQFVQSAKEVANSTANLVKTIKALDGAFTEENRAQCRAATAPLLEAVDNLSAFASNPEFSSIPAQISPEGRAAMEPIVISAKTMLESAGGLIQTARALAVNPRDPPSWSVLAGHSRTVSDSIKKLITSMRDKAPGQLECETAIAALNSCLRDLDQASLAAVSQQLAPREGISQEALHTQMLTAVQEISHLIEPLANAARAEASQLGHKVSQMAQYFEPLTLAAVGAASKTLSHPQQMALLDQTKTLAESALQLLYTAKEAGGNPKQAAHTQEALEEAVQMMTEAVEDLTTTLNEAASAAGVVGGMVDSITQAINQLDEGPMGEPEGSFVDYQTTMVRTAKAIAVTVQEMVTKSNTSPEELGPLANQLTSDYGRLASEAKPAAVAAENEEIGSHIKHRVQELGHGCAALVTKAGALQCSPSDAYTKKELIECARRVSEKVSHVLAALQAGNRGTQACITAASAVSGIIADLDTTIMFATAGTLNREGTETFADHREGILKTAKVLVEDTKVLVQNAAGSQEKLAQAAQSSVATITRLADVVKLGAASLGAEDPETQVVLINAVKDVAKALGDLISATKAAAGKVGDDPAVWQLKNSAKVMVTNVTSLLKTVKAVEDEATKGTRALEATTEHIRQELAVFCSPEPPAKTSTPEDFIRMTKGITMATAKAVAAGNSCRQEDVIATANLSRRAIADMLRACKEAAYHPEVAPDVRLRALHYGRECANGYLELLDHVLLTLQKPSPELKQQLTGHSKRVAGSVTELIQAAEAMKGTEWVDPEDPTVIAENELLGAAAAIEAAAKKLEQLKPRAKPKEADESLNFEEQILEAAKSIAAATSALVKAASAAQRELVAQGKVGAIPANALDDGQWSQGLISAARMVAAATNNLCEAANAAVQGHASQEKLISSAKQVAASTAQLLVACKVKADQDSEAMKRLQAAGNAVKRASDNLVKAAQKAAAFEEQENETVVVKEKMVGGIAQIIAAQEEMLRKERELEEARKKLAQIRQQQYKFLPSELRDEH

Cofilin-1 (human) [15] = biological target: Cofilin-1 (human) (UniProt P23528); experiment: PIF affinity column + LC-MS/MS, CD8+ cell lysate
[16] = biological target: Tubulin alpha-1C chain (human) (UniProt Q9BQE3); experiment: PIF affinity column + LC-MS/MS, CD8+ cell lysate
[17] = biological target: Hepatoma-derived growth factor (human) (UniProt P51858); experiment: PIF affinity column + LC-MS/MS, CD8+ cell lysate
[18] = biological target: Nuclease-sensitive element-binding protein 1 (Fragment) (human) (UniProt P67809); experiment: PIF affinity column + LC-MS/MS, CD8+ cell lysate
[19] = biological target: Isoform 2 of Protein SET (human) (UniProt Q01105); experiment: PIF affinity column + LC-MS/MS, CD8+ cell lysate
Serum albumin (human) [20] = biological target: Serum albumin (human) (UniProt P02768); experiment: PIF affinity column + LC-MS/MS, CD8+ cell lysate
[21] = biological target: Serine/arginine-rich-splicing factor 1 (human) (UniProt Q07955); experiment: PIF affinity column + LC-MS/MS, CD8+ cell lysate
[22] = biological target: Cartilage oligomeric matrix protein (human) (UniProt P49747); experiment: PIF affinity column + LC-MS/MS, CD8+ cell lysate
[23] = biological target: Actin, cytoplasmic 1 (human) (UniProt P60709); experiment: PIF affinity column + LC-MS/MS, CD8+ cell lysate

For “PIF-resin (PIF15 affinity ligand on agarose) (peptide)”, the Ave [1] was 4, the Inject 1 [1] was 5 and the Inject 2 [1] was 4. It also gave an Ave [2] of 1, an Inject 1 [2] of 1 and an Inject 3 [2] of 0. The Inject 3 (Coronin-1A (human)) was 1, the Ave (Thymosin alpha-1 (human) [3]) was 5 and the Inject 1 (Thymosin alpha-1 (human) [3]) was 4. It also gave an Inject 2 (Thymosin alpha-1 (human) [3]) of 5, an Ave [4] of 4 and an Inject 1 [4] of 4. It also gave an Inject 2 [4] of 4, an Inject 3 [4] of 4 and an Ave [5] of 1. The Inject 1 [5] was 1, the Inject 2 [5] was 1 and the Inject 3 [5] was 1. It also gave an Ave (Cofilin-1 (human) [6]) of 1, an Inject 1 (Cofilin-1 (human) [6]) of 1 and an Inject 2 (Cofilin-1 (human) [6]) of 1. The Inject 3 (Cofilin-1 (human) [6]) was 1, the Inject 1 [7] was 1 and the Ave [8] was 4. It also gave an Inject 2 [8] of 4, an Inject 3 [8] of 4 and an Ave (Calreticulin (human)) of 4. For the same substance, the Inject 1 (Calreticulin (human)) was 4, the Inject 2 (Calreticulin (human)) was 4 and the Inject 3 (Calreticulin (human)) was 4. It also gave an Ave [9] of 4, an Inject 1 [9] of 4 and an Inject 2 [9] of 4. It also gave an Inject 3 [9] of 4, an Ave [10] of 1 and an Inject 1 [10] of 1. It also gave an Inject 2 [10] of 1, an Inject 3 [10] of 1 and an Ave (Serum albumin (human) [11]) of 8. For the same substance, the Inject 1 (Serum albumin (human) [11]) was 4, the Inject 3 (Serum albumin (human) [11]) was 12 and the Ave [12] was 10. For the same substance, the Inject 1 [12] was 10, the Inject 2 [12] was 10 and the Inject 3 [12] was 11. For the same substance, the Ave [13] was 2, the Inject 1 [13] was 2 and the Inject 2 [13] was 2. For the same substance, the Inject 3 [13] was 2, the Inject 3 (Thymosin alpha-1 (human) [14]) was 4 and the Ave (Nucleolin (human)) was 1. It also gave an Inject 1 (Nucleolin (human)) of 1, an Inject 2 (Nucleolin (human)) of 1 and an Inject 3 (Nucleolin (human)) of 1. It also gave an Ave (Talin-1 (human)) of 1, an Inject 1 (Talin-1 (human)) of 1 and an Inject 2 (Talin-1 (human)) of 1. The Inject 3 (Talin-1 (human)) was 1, the Ave (Cofilin-1 (human) [15]) was 1 and the Inject 1 (Cofilin-1 (human) [15]) was 1. For the same substance, the Inject 2 (Cofilin-1 (human) [15]) was 1, the Inject 3 (Cofilin-1 (human) [15]) was 1 and the Ave [16] was 1. It also gave an Inject 1 [16] of 1, an Inject 2 [16] of 1 and an Inject 3 [16] of 1. The Ave [17] was 1, the Inject 1 [17] was 1 and the Inject 2 [17] was 1. For the same substance, the Inject 3 [17] was 1, the Ave [18] was 1 and the Inject 1 [18] was 1. The Inject 2 [18] was 1, the Inject 3 [18] was 1 and the Ave [19] was 1. The Inject 1 [19] was 1, the Inject 2 [19] was 1 and the Inject 3 [19] was 1. For the same substance, the Inject 3 (Serum albumin (human) [20]) was 8, the Ave [21] was 1 and the Inject 1 [21] was 1. For the same substance, the Inject 2 [21] was 1, the Inject 3 [21] was 1 and the Ave [22] was 4. The Inject 1 [22] was 4, the Inject 2 [22] was 4 and the Inject 3 [22] was 5. It also gave an Ave [23] of 3, an Inject 1 [23] of 3 and an Inject 2 [23] of 3. For the same substance, the Inject 3 [23] was 3.
